The source of these data is article PMC3137068.

Series [1] concerns the target oxidized nDsbD (N-terminal periplasmic globular domain of DsbD, wild type) (E. coli) (UniProt P36655). Kind of series: SPR. In general terms: Surface plasmon resonance follows binding to a sensor surface in real time, without labels.
The target of the next series is Cys461 (UniProt position 480, LYADWCVACKE). Description: NMR. The conditions noted are these: reduced cDsbD (Cys461 and Cys464 as free thiols), isolated from nDsbD; cited from earlier work.
The target in another series is Asp455 (UniProt position 474, KPVMLDLYADW). The note with it: isolated domain, cited from earlier work.
Series [2] has as its target oxidized V462A-cDsbD (E. coli). Kind of series: NMR titration.
For series [3], the target named is oxidized D455N/E468Q-cDsbD (E. coli). Kind of series: NMR titration.
The target of series [4] is oxidized cDsbD (C-terminal periplasmic globular domain of DsbD, wild type) (E. coli). Description: NMR titration.

Like-named read-outs stand apart in the source and are kept apart here.

oxidized cDsbD (C-terminal periplasmic globular domain of DsbD, wild type) (E. coli), sequence (P36655 20-565): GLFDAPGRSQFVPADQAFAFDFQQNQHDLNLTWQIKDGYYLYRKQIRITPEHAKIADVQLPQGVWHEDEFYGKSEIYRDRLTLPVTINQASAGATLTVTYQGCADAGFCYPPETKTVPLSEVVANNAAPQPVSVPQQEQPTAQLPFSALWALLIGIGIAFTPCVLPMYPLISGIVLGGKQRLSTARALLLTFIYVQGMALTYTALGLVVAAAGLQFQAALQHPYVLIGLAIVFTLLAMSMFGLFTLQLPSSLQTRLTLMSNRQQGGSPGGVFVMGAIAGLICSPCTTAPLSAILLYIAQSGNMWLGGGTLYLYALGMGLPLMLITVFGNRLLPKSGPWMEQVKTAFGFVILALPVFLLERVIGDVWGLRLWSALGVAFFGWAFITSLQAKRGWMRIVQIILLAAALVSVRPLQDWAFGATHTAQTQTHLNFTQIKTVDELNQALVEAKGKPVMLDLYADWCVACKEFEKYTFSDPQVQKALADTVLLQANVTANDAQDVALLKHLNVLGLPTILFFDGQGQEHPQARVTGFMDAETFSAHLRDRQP

One may read the Kd as the free concentration of one partner at which half of the binding sites on the other are occupied at equilibrium, for simple one-to-one binding. The low end stands for tighter binding, the high end for weaker binding. In series [1], C461A-cDsbD (domain or fragment) came in with a dissociation constant (Kd) of 0.086 mM.
What is called pKa is the pH at which an ionisable group is half protonated. For the molecule “Thiol:disulfide interchange protein DsbD, C-terminal periplasmic thioredoxin-like domain (cDsbD) (Escherichia coli)”, the pKa with Cys461 is on record as 10.5; with Asp455 (oxidized cDsbD (Cys461-Cys464 disulfide)), 6.6; with Asp455 (reduced cDsbD (Cys461 and Cys464 as free thiols)), 5.9.

B1: oxidized nDsbD (N-terminal periplasmic globular domain of DsbD, wild type) (domain or fragment)
chain: LFDAPGRSQFVPADQAFAFDFQQNQHDLNLTWQIKDGYYLYRKQIRITPEHAKIADVQLPQGVWHEDEFYGKSEIYRDRLTLPVTINQASAGATLTVTYQGCADAGFCYPPETKTVPLSEVVANNAAPQPV
modifications: Cys103-Cys109 disulfide bond (oxidized state)
On to B1, for which the fold weaker than with wild-type cDsbDox in series [2] lay in the range of 5 to 10 fold. The molecule also registered a Kd in series [3] of 2 mM.

B2: C109A-nDsbD (domain or fragment)
chain: LFDAPGRSQFVPADQAFAFDFQQNQHDLNLTWQIKDGYYLYRKQIRITPEHAKIADVQLPQGVWHEDEFYGKSEIYRDRLTLPVTINQASAGATLTVTYQGCADAGFAYPPETKTVPLSEVVANNAAPQPV
B2: the Kd in series [4] fell in the range of 2.4 to 3.5 mM.
